Common to all, as to assay: SPR
Background: SPR reads the build-up and loss of mass on a sensor chip optically.

The target of experiment [1] is UC1_(Full-length) (V1V2-containing UC1 gp120, HIV-2) with sCD4 (HIV-2 isolate UC1 gp120; human CD4, UniProt Q76638;PDB, strain).
In experiment [2] the target is soluble CD4 (domains 1 and 2 from human CD4) (human).
The target of experiment [3] is CAP210–sCD4 complex (core CAP210 gp120 with sCD4) (HIV-1 clade C CAP210.2.00.E8 gp120; …, strain).

We go through one molecule from publication PMC2949298 (Nature structural & molecular biology, 2010).

B1: 21c Fab (Fab, V domains shown)
VH: QVQVVQSGAEVRKPGASVKVSCKVSGFTLTGLSIHWVRQAPGKGLEWMGGFGPEENEIIYAQKFQGRVSMTEDTSTNTAYMELSSLRSEDTAVYYCATGGNYYNLWTGYYPLAYWGQGTLVTVSS
VL: QSVLTQPPSVSAAPGQKVTISCSGSSSNIGKNYVSWYQQLPGAAPKLLIFDDTQRPSGIPDRFSGSKSGTSATLAITGLQTGDEADYYCGTWDSSLSTGQLFGGGTKLTVL
What is called Kd is the equilibrium constant for the complex coming apart. Consider B1, for which, in experiment [1], the binding result is given as “binds”. Further, the dissociation constant Kd in experiment [2] was > 100 µM; in experiment [3], 1600 nM.
